The values that follow are results of earlier work, collected in paper PMC6205161.

For this data set, the target named is apo-GLRX5 (Homo sapiens) (UniProt Q86SX6). The experiment in a line: thermophoresis.
Chain of UniProt Q86SX6 (Q86SX6 32-157): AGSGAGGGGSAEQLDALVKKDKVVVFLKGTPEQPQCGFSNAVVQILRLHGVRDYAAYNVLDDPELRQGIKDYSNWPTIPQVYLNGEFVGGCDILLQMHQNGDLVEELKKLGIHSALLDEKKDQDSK

In the case of BOLA1 (from UniProt Q9Y3E2), the Kd was 3 µM.
In the case of BOLA3 (from UniProt Q53S33), the Kd was 3 µM.

What is called Kd is the constant that tells how readily two partners part at equilibrium.
